Test results from patent US20230279152A1 (published 2023).
Numbering of substitutions follows the chain as printed. Blank lines part the entries; values can stand above or below the binder they belong to.

Key:
[1] = target: T1, human Claudin 18.2 protein (human); assay: FACS cell surface binding analysis
T1 construct: Expressed on transfected cells (CHO-hCLDN18.2, HEK293-hCLDN18.2, 3T3-hCLDN18.2) from pCMV3-hCLDN18.2; also called human CLDN18.2; hCLDN18.2

[2] = target: T1, human Claudin 18.2 protein; assay: FACS on cells expressing CLDN18.2 versus cells expressing CLDN18.1 (reference: binding to CLDN18.1)
Text: FACS cell binding assays. […] Cells were fixed with 1% paraformaldehyde (PFA) prior to analysis on FACSCalibur cytometer (BD biosciences, Franklin Lakes, N.J., U.S.). Controls were cells with secondary antibody only, for which the mean fluorescent intensity (MFI) was set to 5.

[3] = target: T1, human Claudin 18.2 protein; assay: cell-based or functional assay

T1 sequence (chain, as listed by the source limits assumed): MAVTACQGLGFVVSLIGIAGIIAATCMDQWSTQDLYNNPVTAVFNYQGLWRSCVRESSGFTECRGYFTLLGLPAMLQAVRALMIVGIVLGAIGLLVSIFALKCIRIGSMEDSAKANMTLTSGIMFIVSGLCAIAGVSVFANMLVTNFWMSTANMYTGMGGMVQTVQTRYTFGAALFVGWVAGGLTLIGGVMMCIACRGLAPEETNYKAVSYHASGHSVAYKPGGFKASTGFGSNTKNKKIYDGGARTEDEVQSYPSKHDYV

EC50 [1]: 0.129 nM
B1: 32G4-huIgG1-V9 (antibody, V domains shown)
VH: EVQLVQSGSELKKPGASVKVSCKASGYSSTGYNINWVRQAPGQGLEWIGNINPYYGGITYNQGFTGRFVLSVDKSSSTAYLQISSLKAEDTAVYYCARDYYGNSFAYWGQGTLVTVSS
VL: DIVMTQSPDSLAVSLGERATINCKSSQSLLNSGNQKNYLTWYQQKPGQPPKLLIFWASTRESGVPDRFSGSGSGTDFTLTISSLQAEDVAVYYCQNNYYFPYTFGQGTKLEIKR
notes: Humanized full IgG1 antibody; also called humanized 32G4 variant V9; 32G4-V9

EC50 [1]: 1.26 nM
fold stronger binding to CLDN18.2 than to CLDN18.1 [2]: ≥ 1000 times
B2: 29G4 mouse chimeric antibody (murine VH/VL on human IgG1 constant regions) (antibody, V domains shown)
VH: QVQLKESGPGLVAPSQTLSITCTVSGFSLTNYGVQWVRQPPGKGLEWLGVIWAGGNTNYNSALLSRLSISKDTSKSQVFLKMNSLKTDDTAMYYCARGGYGNSCDYWGQGTLVTVSA
VL: DIVMTQSPSSLTVTAGEKVTMNCKSSQSLLNSGNQKNYLAWYRQKPGQPPKLLIYWASTRGSGVPDRFTGSGSGTDFALTISSVQAEDLAVYYCQNDYFYPLTFGAGTKLDLK
notes: also called murine clone 29G4

EC50 [1]: 0.502 nM
fold stronger binding to CLDN18.2 than to CLDN18.1 [2]: ≥ 1000 times
B3: 32G4 mouse chimeric antibody (murine VH/VL on human IgG1 constant regions) (antibody, V domains shown)
VH: EVQLQQSGPELENPGASVKIFCKASGYSSTGYNINWVKQSSGKSLEWIGNINPYYGGITYNQKFKGKATLTVDKSSSTAYVQLKSLTSEDSAVYYCARDYYGNSFAYWGQGTLVTVST
VL: DIVMTQSPSSLTVTAGEKVTMSCKSSQSLLNSGNQKNYLTWYQQNPGQPPKLLIFWASTRESGVPDRFTGSGSGTDFTLTISSVQAEDLAVYYCQNNYYFPYTFGGGTKLEIR
notes: also called murine clone 32G4; mouse 32G4 chimeric control antibody

EC50 [1]: 1.97 nM
fold stronger binding to CLDN18.2 than to CLDN18.1 [2]: ≥ 1000 times
B4: 47D10 mouse chimeric antibody (murine VH/VL on human IgG1 constant regions) (antibody, V domains shown)
VH: QVMLVESGGGLVKPGGSLKLSCAASGFAFSSSAMSWIRQTPEKRLEWVATMTVGYIYTYYLDTVKGRFIISRDNANNTLYLQMSSLRSEDSAMYYCARQGYGNAMDYWGQGTSVTVSS
VL: B2 VL with N22S, A40T, R43Q, G61E, D66Y, A78T, Q85E, D97N, F99I, D111E
notes: also called murine clone 47D10; mouse 47D10 chimeric control antibody

EC50 [1]: 2.2 nM
fold stronger binding to CLDN18.2 than to CLDN18.1 [2]: ≥ 1000 times
B5: 15B10 mouse chimeric antibody (murine VH/VL on human IgG1 constant regions) (antibody, V domains shown)
VH: QVQLQQSGAELVRPGTSVKVSCKASGYAFSNYLIDWVKQRPGQGLEWIGVIHPGSGTNYNENFKGKATLTADKSSSTAYMQLSSLTSDDSAVYFCSRRWYGNSLIYWGQGTLVTVSA
VL: B2 VL with N22T, K36R, A40T, R43Q, G61E, A78T, L102F, A106S, D111E, L112I
notes: also called murine clone 15B10

B6: 47D10-huIgG1-V7×OKT3 (anti-CLDN18.2×CD3) bispecific antibody (bispecific antibody)
heavy: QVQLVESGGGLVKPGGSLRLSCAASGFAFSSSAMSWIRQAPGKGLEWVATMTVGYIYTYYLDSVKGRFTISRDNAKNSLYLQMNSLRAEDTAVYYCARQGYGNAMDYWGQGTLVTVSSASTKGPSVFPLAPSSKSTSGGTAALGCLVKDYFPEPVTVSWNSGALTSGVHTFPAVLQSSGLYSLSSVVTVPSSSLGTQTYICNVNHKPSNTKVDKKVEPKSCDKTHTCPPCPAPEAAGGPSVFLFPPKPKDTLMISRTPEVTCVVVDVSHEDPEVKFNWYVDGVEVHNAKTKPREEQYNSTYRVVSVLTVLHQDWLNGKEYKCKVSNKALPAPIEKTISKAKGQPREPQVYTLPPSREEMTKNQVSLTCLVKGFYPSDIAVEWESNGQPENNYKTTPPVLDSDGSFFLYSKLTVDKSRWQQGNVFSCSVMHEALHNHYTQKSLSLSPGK
light: DIVMTQSPGTLSLSPGERATLSCRSSQSLLNSGNQKNYLTWYQQKPGQAPRLLIYWASTRESGIPDRFSGSGSGTDFTLTISRLEPEDFAVYYCQNNYIYPLTFGQGTKLEIKRTVAAPSVFIFPPSDEQLKSGTASVVCLLNNFYPREAKVQWKVDNALQSGNSQESVTEQDSKDSTYSLSSTLTLSKADYEKHKVYACEVTHQGLSSPVTKSFNRGECTSGGGGSGGGGSGGGGSQVQLVQSGGGVVQPGRSLRLSCKASGYTFTRYTMHWVRQAPGKGLEWIGYINPSRGYTNYNQKFKDRFTISRDNSKNTAFLQMDSLRPEDTGVYFCARYYDDHYSLDYWGQGTPVTVSSGGGGSGGGGSGGGGSGGGGSGGGGSGGGGSDIQMTQSPSSLSASVGDRVTITCSASSSVSYMNWYQQTPGKAPKRWIYDTSKLASGVPSRFSGSGSGTDYTFTISSLQPEDIATYYCQQWSSNPFTFGQGTKLQIT
TDCC activity (T cell dependent cellular cytotoxicity; CellTiter-Glo cell viability, PBMCs as effectors, 48 hours) [3]: 1 pM

EC50 [1]: 0.147 nM
B7: 32G4-huIgG1-V8 (antibody, V domains shown)
VH: QVQLVQSGAEVKKPGASVKVSCKASGYSSTGYNINWVRQAPGQGLEWMGNINPYYGGITYNQKFQGRVTMTVDKSISTAYMELSRLRSDDTVVYYCARDYYGNSFAYWGQGTLVTVSS
VL: DIQMTQSPSSLSASVGDRVTITCRSSQSLLNSGNQKNYLTWYQQKPGKAPKLLIFWASTLESGVPSRFSGSGSGTDFTLTISSLQPEDFATYYCQNNYYFPYTFGQGTKLEIKR
notes: Humanized full IgG1 antibody; also called humanized 32G4 variant V8; 32G4-V8

EC50 [1]: 0.22 nM
B8: 47D10-huIgG1-V6 (antibody, V domains shown)
VH: QVQLVESGGGLVKPGGSLRLSCAASGFAFSSSAMSWIRQAPGKGLEWVATMTVGYIYTYYLDSVKGRFTISRDNAKNSLYLQMNSLRAEDTAVYYCARQGYGNAMDYWGQGTLVTVSS
VL: DIVMTQSPLSLPVTPGEPASISCRSSQSLLNSGNQKNYLTWYLQKPGQSPQLLIYWASTRESGVPDRFSGSGSGTDFTLKISRVEAEDVGVYYCQNNYIYPLTFGQGTKLEIKR
notes: Humanized full IgG1 antibody; also called humanized 47D10 variant V6; 47D10-V6

EC50 [1]: 0.361 nM
B9: 47D10-huIgG1-V7 (antibody, V domains shown)
VH: B8 VH
VL: DIVMTQSPGTLSLSPGERATLSCRSSQSLLNSGNQKNYLTWYQQKPGQAPRLLIYWASTRESGIPDRFSGSGSGTDFTLTISRLEPEDFAVYYCQNNYIYPLTFGQGTKLEIKR
notes: Humanized full IgG1 antibody; also called humanized 47D10 variant V7; 47D10-V7

B10: 32G4-huIgG1-V8×OKT3 (anti-CLDN18.2×CD3) bispecific antibody (bispecific antibody)
heavy: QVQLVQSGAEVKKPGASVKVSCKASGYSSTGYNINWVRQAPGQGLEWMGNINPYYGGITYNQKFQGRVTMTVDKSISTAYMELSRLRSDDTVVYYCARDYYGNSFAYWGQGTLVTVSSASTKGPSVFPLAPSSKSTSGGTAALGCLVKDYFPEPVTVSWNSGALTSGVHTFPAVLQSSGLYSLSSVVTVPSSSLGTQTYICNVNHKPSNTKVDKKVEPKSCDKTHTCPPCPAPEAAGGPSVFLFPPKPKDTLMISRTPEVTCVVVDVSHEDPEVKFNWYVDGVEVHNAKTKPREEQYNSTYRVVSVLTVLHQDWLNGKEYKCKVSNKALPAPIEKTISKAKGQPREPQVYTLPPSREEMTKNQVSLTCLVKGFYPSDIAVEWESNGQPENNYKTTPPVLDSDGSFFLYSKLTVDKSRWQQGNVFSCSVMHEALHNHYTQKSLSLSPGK
light: DIQMTQSPSSLSASVGDRVTITCRSSQSLLNSGNQKNYLTWYQQKPGKAPKLLIFWASTLESGVPSRFSGSGSGTDFTLTISSLQPEDFATYYCQNNYYFPYTFGQGTKLEIKRTVAAPSVFIFPPSDEQLKSGTASVVCLLNNFYPREAKVQWKVDNALQSGNSQESVTEQDSKDSTYSLSSTLTLSKADYEKHKVYACEVTHQGLSSPVTKSFNRGECTSGGGGSGGGGSGGGGSQVQLVQSGGGVVQPGRSLRLSCKASGYTFTRYTMHWVRQAPGKGLEWIGYINPSRGYTNYNQKFKDRFTISRDNSKNTAFLQMDSLRPEDTGVYFCARYYDDHYSLDYWGQGTPVTVSSGGGGSGGGGSGGGGSGGGGSGGGGSGGGGSDIQMTQSPSSLSASVGDRVTITCSASSSVSYMNWYQQTPGKAPKRWIYDTSKLASGVPSRFSGSGSGTDYTFTISSLQPEDIATYYCQQWSSNPFTFGQGTKLQIT
TDCC activity (T cell dependent cellular cytotoxicity; CellTiter-Glo cell viability, PBMCs as effectors, 48 hours) [3]: 1 pM

B11: 47D10-huIgG1-V6×OKT3 (anti-CLDN18.2×CD3) bispecific antibody (bispecific antibody)
heavy: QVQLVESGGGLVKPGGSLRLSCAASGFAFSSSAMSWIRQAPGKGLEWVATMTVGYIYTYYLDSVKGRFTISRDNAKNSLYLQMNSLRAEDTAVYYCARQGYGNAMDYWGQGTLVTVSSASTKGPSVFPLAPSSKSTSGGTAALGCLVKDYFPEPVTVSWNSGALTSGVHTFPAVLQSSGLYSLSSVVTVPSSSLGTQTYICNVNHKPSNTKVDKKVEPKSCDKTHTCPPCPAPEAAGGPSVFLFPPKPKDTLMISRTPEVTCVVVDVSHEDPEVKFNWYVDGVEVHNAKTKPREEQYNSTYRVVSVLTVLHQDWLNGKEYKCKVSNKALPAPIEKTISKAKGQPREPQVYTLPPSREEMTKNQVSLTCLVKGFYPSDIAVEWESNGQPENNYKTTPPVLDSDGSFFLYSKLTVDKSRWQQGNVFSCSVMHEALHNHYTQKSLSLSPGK
light: DIVMTQSPLSLPVTPGEPASISCRSSQSLLNSGNQKNYLTWYLQKPGQSPQLLIYWASTRESGVPDRFSGSGSGTDFTLKISRVEAEDVGVYYCQNNYIYPLTFGQGTKLEIKRTVAAPSVFIFPPSDEQLKSGTASVVCLLNNFYPREAKVQWKVDNALQSGNSQESVTEQDSKDSTYSLSSTLTLSKADYEKHKVYACEVTHQGLSSPVTKSFNRGECTSGGGGSGGGGSGGGGSQVQLVQSGGGVVQPGRSLRLSCKASGYTFTRYTMHWVRQAPGKGLEWIGYINPSRGYTNYNQKFKDRFTISRDNSKNTAFLQMDSLRPEDTGVYFCARYYDDHYSLDYWGQGTPVTVSSGGGGSGGGGSGGGGSGGGGSGGGGSGGGGSDIQMTQSPSSLSASVGDRVTITCSASSSVSYMNWYQQTPGKAPKRWIYDTSKLASGVPSRFSGSGSGTDYTFTISSLQPEDIATYYCQQWSSNPFTFGQGTKLQIT
TDCC activity (T cell dependent cellular cytotoxicity; CellTiter-Glo cell viability, PBMCs as effectors, 48 hours) [3]: 1 pM

EC50 [1]: 10.9 nM
fold stronger binding to CLDN18.2 than to CLDN18.1 [2]: ≥ 1000 times
B12: 31A6 mouse chimeric antibody (murine VH/VL on human IgG1 constant regions) (antibody, V domains shown)
VH: QTYLQQSGAELVRSGASVKMSCKASGYTFASYNIHWVKQTPGQGLEWIGYIYPGKDGSHYNQKFRDKATLTADTSSSTAYMQISSLTSEDSAVYFCARGGYYGNSFDYWGQGTLVTVSA
VL: DIVMSQSPSSLTVTTGEKVTMTCKSSQSLLNSGNLKNYLAWYQQKPGQPPKLLIYWASIRESGVPDRFTGSGSGTDFTLTIISVQAEDLAIYYCQNAYTFPFTLGGGTKLEIK
notes: also called murine clone 31A6
